According to patent US20160166666A1, “TUMOR ANTIGEN PEPTIDE” (Sumitomo Dainippon Pharma Co., Ltd., priority 2013, published 2016):

How the values were obtained:
HLA-A*02:01 on T2 cells = target: T1, HLA-A*02:01 on T2 cells (human, UniProt P04439 25-302 at identity 0.94)); test: MHC class I expression stabilization test on T2 cells as in Example 2, flow cytometry
T1 construct: whole, on cells; Empty MHC class I on the cell surface that is stabilized by an added peptide; the text gives HLA-A*02:01
T1 MHC heavy: not shown

[1] = target: T2, HLA-A*24:02 on T2-A24 cells (human, UniProt P04439-2 25-302 at identity 0.92)); test: MHC class I expression stabilization test on T2-A24 cells as in Example 2, flow cytometry
T2 construct: whole, on cells; Empty MHC class I on the cell surface that is stabilized by an added peptide; the text gives HLA-A*24:02
T2 MHC heavy: not shown

## VMAYDRFVAI (Synthetic peptide, Fmoc method) [Peptide represented by SEQ ID No: 11, OR7C1 V126I (117-126)]
HLA-A*02:01 on T2 cells
  mean fluorescence intensity (MFI) solvent ratio: 2.2 ratio to solvent
[1]
  mean fluorescence intensity (MFI) solvent ratio: 3.8 ratio to solvent
